The labels stand for the following.
B1: DnaJ homolog subfamily C member 5, residues 16 to 77; numbered along this chain, Q9H3Z4 (parent)
chain: LYHVLGLDKNATSDDIKKSYRKLALKYHPDKNPDNPEAADKFKEINNAHAILTDATKRNIYD

± gives the uncertainty stated by the source.

This data set covers variants of B1. The data set is described as follows: abundance fitness (aPCA) (normalised: wild type 0, dead -1); higher = more abundant; growth selection in yeast, the domain comes from the species named. As to conditions: Homo sapiens.
On to LYHVLGLDKNATSDDIKKSYRKLALKYHPDKNPDNPEAADKFKTINNAHAILTDATKRNIYD [E44T], for which the abundance fitness was -0.518 ± 0.096.

Regarding LYHVLGLDKNATSDDIKKSYRKLALKYHPDKNPDNPEAADKFKPINNAHAILTDATKRNIYD [E44P], the abundance fitness was -0.626 ± 0.1.

LYHVLGLDKNATSDDIKKSYRKLALKYHPDKNPDNPEAADKFKRINNAHAILTDATKRNIYD [E44R]: the abundance fitness was -0.435 ± 0.061.

LYHVLGLDKNATSDDIKKSYRKLALKYHPDKNPDNPEAADKFKFINNAHAILTDATKRNIYD [E44F]: the abundance fitness is -0.744 ± 0.12.

On to LYHVLGLDKNATSDDIKKSYRKLALKYHPDKNPDNPEAADKFKKINNAHAILTDATKRNIYD [E44K], for which the abundance fitness was -0.376 ± 0.096.

Take LYHVLGLDKNATSDDIKKSYRKLALKYHPDKNPDNPEAADKFKWINNAHAILTDATKRNIYD [E44W]: the abundance fitness was -0.731 ± 0.14.

With LYHVLGLDKNATSDDIKKSYRKLALKYHPDKNPDNPEAADKFKDINNAHAILTDATKRNIYD [E44D], the abundance fitness is -0.154 ± 0.1.

Take LYHVLGLDKNATSDDIKKSYRKLALKYHPDKNPDNPEAADKFKQINNAHAILTDATKRNIYD [E44Q]: the abundance fitness was -0.301 ± 0.13.

Consider LYHVLGLDKNATSDDIKKSYRKLALKYHPDKNPDNPEAADKFKYINNAHAILTDATKRNIYD [E44Y], for which the abundance fitness was -0.742 ± 0.2.

Consider LYHVLGLDKNATSDDIKKSYRKLALKYHPDKNPDNPEAADKFKMINNAHAILTDATKRNIYD [E44M], for which the abundance fitness is -0.097 ± 0.11.

Consider LYHVLGLDKNATSDDIKKSYRKLALKYHPDKNPDNPEAADKFKVINNAHAILTDATKRNIYD [E44V], for which the abundance fitness is -0.264 ± 0.073.

With LYHVLGLDKNATSDDIKKSYRKLALKYHPDKNPDNPEAADKFKCINNAHAILTDATKRNIYD [E44C], the abundance fitness was -0.524 ± 0.12.

In the case of LYHVLGLDKNATSDDIKKSYRKLALKYHPDKNPDNPEAADKFKLINNAHAILTDATKRNIYD [E44L], the abundance fitness was -0.504 ± 0.063.

As to LYHVLGLDKNATSDDIKKSYRKLALKYHPDKNPDNPEAADKFKIINNAHAILTDATKRNIYD [E44I], the abundance fitness is -0.73 ± 0.19.

On to LYHVLGLDKNATSDDIKKSYRKLALKYHPDKNPDNPEAADKSKEINNAHAILTDATKRNIYD [F42S], for which the abundance fitness was -0.219 ± 0.097.

Turning to LYHVLGLDKNATSDDIKKSYRKLALKYHPDKNPDNPEAADKWKEINNAHAILTDATKRNIYD [F42W], the abundance fitness is -0.05 ± 0.073.

On to LYHVLGLDKNATSDDIKKSYRKLALKYHPDKNPDNPEAADKEKEINNAHAILTDATKRNIYD [F42E], for which the abundance fitness was -0.192 ± 0.11.

On to LYHVLGLDKNATSDDIKKSYRKLALKYHPDKNPDNPEAADKGKEINNAHAILTDATKRNIYD [F42G], for which the abundance fitness was -0.278 ± 0.07.

On to LYHVLGLDKNATSDDIKKSYRKLALKYHPDKNPDNPEAADKLKEINNAHAILTDATKRNIYD [F42L], for which the abundance fitness was found to be 0.202 ± 0.061.

With LYHVLGLDKNATSDDIKKSYRKLALKYHPDKNPDNPEAADKVKEINNAHAILTDATKRNIYD [F42V], the abundance fitness is -0.197 ± 0.065.

LYHVLGLDKNATSDDIKKSYRKLALKYHPDKNPDNPEAADKIKEINNAHAILTDATKRNIYD [F42I]: the abundance fitness was -0.135 ± 0.05.

Turning to LYHVLGLDKNATSDDIKKSYRKLALKYHPDKNPDNPEAADKNKEINNAHAILTDATKRNIYD [F42N], the abundance fitness is -0.237 ± 0.096.

Consider LYHVLGLDKNATSDDIKKSYRKLALKYHPDKNPDNPEAADKHKEINNAHAILTDATKRNIYD [F42H], for which the abundance fitness was -0.421 ± 0.17.

In the case of LYHVLGLDKNATSDDIKKSYRKLALKYHPDKNPDNPEAADKAKEINNAHAILTDATKRNIYD [F42A], the abundance fitness is -0.28 ± 0.076.

As for LYHVLGLDKNATSDDIKKSYRKLALKYHPDKNPDNPEAADKPKEINNAHAILTDATKRNIYD [F42P], the abundance fitness is -0.41 ± 0.099.

As for LYHVLGLDKNATSDDIKKSYRKLALKYHPDKNPDNPEAADKCKEINNAHAILTDATKRNIYD [F42C], the abundance fitness was -0.243 ± 0.11.

For LYHVLGLDKNATSDDIKKSYRKLALKYHPDKNPDNPEAADKRKEINNAHAILTDATKRNIYD [F42R], the abundance fitness was -0.17 ± 0.059.

On to LYHVLGLDKNATSDDIKKSYRKLALKYHPDKNPDNPEAADKQKEINNAHAILTDATKRNIYD [F42Q], for which the abundance fitness was -0.233 ± 0.078.

Consider LYHVLGLDKNATSDDIKKSYRKLALKYHPDKNPDNPEAADKDKEINNAHAILTDATKRNIYD [F42D], for which the abundance fitness is -0.119 ± 0.1.

With LYHVLGLDKNATSDDIKKSYRKLALKYHPDKNPDNPEAADKMKEINNAHAILTDATKRNIYD [F42M], the abundance fitness stood at 0.223 ± 0.1.

Regarding LYHVLGLDKNATSDDIKKSYRKLALKYHPDKNPDNPEAADKKKEINNAHAILTDATKRNIYD [F42K], the abundance fitness is -0.188 ± 0.12.

Turning to LYHVLGLDKNATSDDIKKSYRKLALKYHPDKNPDNPEAADKYKEINNAHAILTDATKRNIYD [F42Y], the abundance fitness is -0.017 ± 0.18.

As to LYHVLGLDKNATSDDIKKSYRKLALKYHPDKNPDNPEAADKFKEIINAHAILTDATKRNIYD [N46I], the abundance fitness is -0.178 ± 0.16.

For the variant LYHVLGLDKNATSDDIKKSYRKLALKYHPDKNPDNPEAADKFKEICNAHAILTDATKRNIYD [N46C], the abundance fitness came to 0.174 ± 0.2.

LYHVLGLDKNATSDDIKKSYRKLALKYHPDKNPDNPEAADKFKEIFNAHAILTDATKRNIYD [N46F]: the abundance fitness is -0.065 ± 0.18.

Take LYHVLGLDKNATSDDIKKSYRKLALKYHPDKNPDNPEAADKFKEIENAHAILTDATKRNIYD [N46E]: the abundance fitness amounted to 0.093 ± 0.12.

As to LYHVLGLDKNATSDDIKKSYRKLALKYHPDKNPDNPEAADKFKEIHNAHAILTDATKRNIYD [N46H], the abundance fitness was -0.081 ± 0.11.

Regarding LYHVLGLDKNATSDDIKKSYRKLALKYHPDKNPDNPEAADKFKEIGNAHAILTDATKRNIYD [N46G], the abundance fitness was -0.082 ± 0.084.

With LYHVLGLDKNATSDDIKKSYRKLALKYHPDKNPDNPEAADKFKEIMNAHAILTDATKRNIYD [N46M], the abundance fitness is -0.113 ± 0.1.

Regarding LYHVLGLDKNATSDDIKKSYRKLALKYHPDKNPDNPEAADKFKEILNAHAILTDATKRNIYD [N46L], the abundance fitness is -0.169 ± 0.097.

For the variant LYHVLGLDKNATSDDIKKSYRKLALKYHPDKNPDNPEAADKFKEIKNAHAILTDATKRNIYD [N46K], the abundance fitness was -0.058 ± 0.14.

LYHVLGLDKNATSDDIKKSYRKLALKYHPDKNPDNPEAADKFKEIANAHAILTDATKRNIYD [N46A]: the abundance fitness is 0.272 ± 0.12.

For LYHVLGLDKNATSDDIKKSYRKLALKYHPDKNPDNPEAADKFKEIDNAHAILTDATKRNIYD [N46D], the abundance fitness is -0.578 ± 0.24.

The record behind these values is the Human Domainome abundance scans (Beltran et al. 2025).
